Source: US20190264171A1, “DIFFERENTIATION OF PLURIPOTENT STEM CELLS INTO CORNEAL CELLS” (TAMPEREEN YLIOPISTO, priority 2016, published 2019)

Tested on: human pluripotent stem cells cultured in feeder free conditions
Assay: Corneal epithelial differentiation of pluripotent stem cells cultured in feeder free conditions
Type: cell-based
Description: Feeder-free culture, xeno-free culture of human pluripotent stem cells was based on the use of recombinant Laminin-521 (Biolamina, Sweden) extracellular matrix protein coating and defined, xeno-free culture medium, the Essential 8™ Flex Medium (Life Technologies). The pluripotent stem cells were transferred to the culture system from the standard feeder cell based culture system by manually cutting undifferentiated colony parts with scalpel and plating to ln-521 coated (0.75-1.8 μg/cm^2 overnight at +4° C.) culture plates. The cells are allowed to grow near confluency with medium changed 3-4 times a week, and passaged with TrypLE™ Select Enzyme as single cells twice a week.
Differentiation of pluripotent stem cells cultured on feeder cells to corneal epithelial cells with the induction method disclosed in EP 2828380 comprising TGF-beta inhibitor, Wnt inhibitor and a fibroblast growth factor (10 μM SB-505124+10 μM IWP-2, 50 ng/ml bFGF), followed by differentiation in Cnt-30 epithelial medium on collagen IV matrix, yielded at best >90% p63 positive cells with correct corneal epithelial morphology.
However, prominent neuronal differentiation and cell detachment was recurrently observed as the induction method disclosed in EP 2828380 was used.
The human pluripotent stem cells cultured in the feeder free culture system as described above were differentiated to corneal epithelial cells by detaching the pluripotent cells with TrypLE™ Select Enzyme for 4 min at +37° C. On Day 0, embryoid bodies were created with overnight incubation with 5 μM Blebbistatin (Sigma, B05601) or 10 μM Y-27632 dihydrochloride (R&D Systems, 1254) in a xeno-free culture medium containing: Knockout-Dulbecco's Modified Eagle's Medium (ko-DMEM) supplemented with 15% Xeno-Free Knockout Serum Replacement (XF-ko-SR), 2 mM GlutaMax (all from ThermoFisher Scienfic), 1% MEM Eagle Non-Essential Amino acid solution (NEAA, Cambrex Bio Science), 50 U/ml penicillin/streptomycin (Cambrex Bio Science), 0.1 mM ß-mercaptoethanol (ThermoFisher Scienfic). […]

Row | Molecule | cell survival on omitting the substance from the first phase induction medium (IWP-2 omitted from induction medium, collagen IV + laminin-521 matrix) | corneal epithelial cell morphology and marker expression (25 ng/ml BMP-4 for 2 to 3 days after initial induction) | epithelial morphology and marker expression after additional induction (BMP-4 induction (induction phase 3) after SB-505124/bFGF induction, total of 20-30 days of differentiation)
1 | Cc1ccc2nc(NC(=O)CSc3nc4c(c(=O)n3-c3ccccc3)SCC4)sc2c1 [IWP-2, reference compound] | notably enhanced cell survival | – | –
2 | BMP-4: bone morphogenetic protein 4 (Peprotech) (protein, UniProt P12644 293-408, looked up) Bone morphogenetic protein 4: SPKHHSQRARKKNKNCRRHSLYVDFSDVGWNDWIVAPPGYQAFYCHGDCPFPLADHLNSTNHAIVQTLVNSVNSSIPKACCVPTELSAISMLYLDEYDKVVLKNYQEMVVEGCGCR | – | best result of most cells with correct corneal epithelial cell morphology and marker expression | best result with most cells having correct epithelial morphology and marker expression
